Measurements as given in FireProtDB (doi:10.1021/bi00548a004).

B1: Tryptophan synthase alpha chain, P0A877 (parent)
chain: MERYESLFAQLKERKEGAFVPFVTLGDPGIEQSLKIIDTLIEAGADALELGIPFSDPLADGPTIQNATLRAFAAGVTPAQCFEMLALIRQKHPTIPIGLLMYANLVFNKGIDEFYAQCEKVGVDSVLVADVPVEESAPFRQAALRHNVAPIFICPPNADDDLLRQIASYGRGYTYLLSRAGVTGAENRAALPLNHLVAKLKEYNAAPPLQGFGISAPDQVKAAIDAGAAGAISGSAIVKIIEQHINEPEKMLAALKVFVQPMKAATRS

Variants of: B1
Details: Escherichia coli (strain K12), pH 7.8, Thermal, DSC, Sodium phosphate 1 mM, reversible: yes, structure 1WQ5, whole UniProt chain shown

| Variant | ddG of mutation (higher = less stable) (57.8 °C, EDTA 0.2 mM) | heat capacity change of unfolding (57.8 °C, EDTA 0.2 mM) | Tm | change of melting temperature, mutant - wild type (higher = more stable) | heat capacity change of unfolding | unfolding enthalpy (calorimetric) | unfolding enthalpy (van 't Hoff) |
| --- | --- | --- | --- | --- | --- | --- | --- |
| MERYESLFAQLKERKEGAFVPFVTLGDPGIEQSLKIIDTLIEAGADALELGIPFSDPLADGPTIQNATLRAFAAGVTPAQCFEMLALIRQKHPTIPIGLLMYANLVFNKGIDEFYAQCEKVGVDSVLVADVPVEESAPFRQAALRHNVAPIFICPPNADDDLLRQIASYGRGYTYLLSRAGVTGAENRAALPLNHLVAKLKEYNAAPPLQRFGISAPDQVKAAIDAGAAGAISGSAIVKIIEQHINEPEKMLAALKVFVQPMKAATRS [G211R] | -0.1 kcal/mol | 2.8 kcal/mol/K | 58 °C | 0.2 °C | 2.8 kcal/mol/K | 111 kcal/mol | 113 kcal/mol |
| MERYESLFAQLKERKEGAFVPFVTLGDPGIEQSLKIIDTLIEAGADALELGIPFSDPLADGPTIQNATLRAFAAGVTPAQCFEMLALIRQKHPTIPIGLLMYANLVFNKGIDEFYAQCEKVGVDSVLVADVPVEESAPFRQAALRHNVAPIFICPPNADDDLLRQIASYGRGYTYLLSRAGVTGAENRAALPLNHLVAKLKEYNAAPPLQEFGISAPDQVKAAIDAGAAGAISGSAIVKIIEQHINEPEKMLAALKVFVQPMKAATRS [G211E] | -0.6 kcal/mol | 2.7 kcal/mol/K | 59.6 °C | 1.8 °C | 2.7 kcal/mol/K | 109 kcal/mol | 107 kcal/mol |
